Reference: patent KR20220160483A (dated 2022)
Positions count from the first letter of the chain named.

Experiments:
[1] = biological target: T1, 재조합 인간 ASM(acid sphingomyelinase) 단백질 (human, UniProt P17405 62-630, limits assumed); test: BLI (Octet QK384), human ASM amine-coupled on AR2G sensor, antibody 0.4, 2, 10 nM
T1 construct: Recombinant protein, bought (R&D systems in the ELISA); also called 인간 ASM 단백질; recombinant human ASM protein
T1 sequence: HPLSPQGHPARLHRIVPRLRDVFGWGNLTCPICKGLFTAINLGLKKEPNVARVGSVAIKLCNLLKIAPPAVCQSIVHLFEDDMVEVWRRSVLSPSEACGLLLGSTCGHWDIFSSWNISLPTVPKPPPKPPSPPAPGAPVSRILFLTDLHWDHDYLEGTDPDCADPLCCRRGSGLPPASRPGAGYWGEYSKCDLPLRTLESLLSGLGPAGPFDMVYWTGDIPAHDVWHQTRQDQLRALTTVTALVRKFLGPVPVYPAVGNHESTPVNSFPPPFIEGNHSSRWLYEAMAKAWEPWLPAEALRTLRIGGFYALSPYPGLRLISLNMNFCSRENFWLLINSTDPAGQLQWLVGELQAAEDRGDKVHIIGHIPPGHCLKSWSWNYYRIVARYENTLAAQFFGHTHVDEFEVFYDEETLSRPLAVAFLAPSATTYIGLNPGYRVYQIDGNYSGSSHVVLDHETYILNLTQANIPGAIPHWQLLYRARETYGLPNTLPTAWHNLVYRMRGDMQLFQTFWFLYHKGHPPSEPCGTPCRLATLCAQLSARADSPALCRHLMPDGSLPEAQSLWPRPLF

[2] = biological target: T2, 재조합 마우스 ASM(acid sphingomyelinase) 단백질 (mouse, UniProt Q04519 45-626, limits assumed); test: BLI (Octet QK384), mouse ASM amine-coupled on AR2G sensor, antibody 0.4, 2, 10 nM; poor fit (RMax 0.0185, Full R2 0.5527), text does not count it as binding
T2 construct: Recombinant protein; also called 마우스 ASM 단백질; recombinant mouse ASM protein
T2 sequence: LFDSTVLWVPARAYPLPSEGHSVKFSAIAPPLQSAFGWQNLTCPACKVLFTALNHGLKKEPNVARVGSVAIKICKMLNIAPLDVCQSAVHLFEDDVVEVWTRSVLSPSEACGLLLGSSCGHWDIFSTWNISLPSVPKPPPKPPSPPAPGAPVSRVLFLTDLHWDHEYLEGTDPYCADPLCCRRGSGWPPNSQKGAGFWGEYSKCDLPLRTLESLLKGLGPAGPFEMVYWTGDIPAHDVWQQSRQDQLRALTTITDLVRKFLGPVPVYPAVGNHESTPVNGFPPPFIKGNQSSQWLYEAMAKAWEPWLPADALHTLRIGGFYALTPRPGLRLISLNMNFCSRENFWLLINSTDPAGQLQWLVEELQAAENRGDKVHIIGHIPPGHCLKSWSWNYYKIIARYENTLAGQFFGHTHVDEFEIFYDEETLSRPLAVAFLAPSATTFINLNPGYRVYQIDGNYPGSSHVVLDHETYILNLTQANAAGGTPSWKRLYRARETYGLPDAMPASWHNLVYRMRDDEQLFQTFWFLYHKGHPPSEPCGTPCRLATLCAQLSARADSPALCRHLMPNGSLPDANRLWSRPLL

[3] = biological target: T1, 재조합 인간 ASM(acid sphingomyelinase) 단백질; test: ELISA, recombinant human ASM coated at 1 ㎍/㎖, anti-mouse IgG-HRP
[4] = biological target: T2, 재조합 마우스 ASM(acid sphingomyelinase) 단백질; test: BLI (Octet QK384), mouse ASM amine-coupled on AR2G sensor, antibody 0.4, 2, 10 nM; no signal (RMax 0, Full R2 0), text does not count it as binding
[5] = biological target: T2, 재조합 마우스 ASM(acid sphingomyelinase) 단백질; test: BLI (Octet QK384), mouse ASM amine-coupled on AR2G sensor, antibody 0.4, 2, 10 nM

B1: #9101 항체 (antibody, mouse IgG1, V domains shown)
VH: EVQLLESGGGLVQPGGSLRLSCAASGFTFSNYAMSWVRQAPGKGLEWVSGIYPNGGNKYYADSVKGRFTISRDNSKNTLYLQMNSLRAEDTAVYYCAKNAYRFDYWGQGTLVTVSS
VL: QSVLTQPPSASGTPGQRVTISCSGSSSNIGNNYVSWYQQLPGTAPKLLIYADSKRPSGVPDRFSGSKSGTSASLAIGGLRSEDEADYYCGSWDYSLNAYVFGGGTKLTVLG
Kd [1]: 1.16 nM | koff [1]: 0.000728 s⁻¹ | kon [1]: 626000 M⁻¹ s⁻¹ | Kd [2]: 0.0425 nM | koff [2]: 0.000159 s⁻¹ | kon [2]: 3.76e+06 M⁻¹ s⁻¹ | EC50 [3]: 0.0815 nM

B2: #9113 항체 (antibody, mouse IgG1, V domains shown)
VH: EVQLLESGGGLVQPGGSLRLSCAASGFTFSSYYMSWVRQAPGKGLEWVSSISPGGSSIYYADSVKGRFTISRDNSKNTLYLQMNSLRAEDTAVYYCAKGASLFDYWGQGTLVTVSS
VL: B1 VL with Y33A, A51S, S53N, G77S, S91T, Y94A
notes: also called #9113 mIgG1
Kd [1]: 0.564 nM | koff [1]: 0.000656 s⁻¹ | kon [1]: 1.16e+06 M⁻¹ s⁻¹ | Kd [4]: < 1 pM | koff [4]: < 1e-07 s⁻¹ | kon [4]: 1e+06 M⁻¹ s⁻¹

B3: #9108 항체 (antibody, mouse IgG1, V domains shown)
VH: EVQLLESGGGLVQPGGSLRLSCAASGFTFSNYAMSWVRQAPGKGLEWVSAIYPGGGSIYYADSVKGRFTISRDNSKNTLYLQMNSLRAEDTAVYYCARDVLGLTPKPFDYWGQGTLVTVSS
VL: B1 VL with I20L, S23T, N31S, Y33T, S35Y, D52N, K54Q, G77S, N97S, A98G
Kd [1]: 0.119 nM | koff [1]: 2.96e-05 s⁻¹ | kon [1]: 249000 M⁻¹ s⁻¹ | Kd [5]: 3.39 nM | koff [5]: 0.00156 s⁻¹ | kon [5]: 459000 M⁻¹ s⁻¹ | EC50 [3]: 0.327 nM

B4: #9104 항체 (antibody, mouse IgG1, V domains shown)
VH: B1 VH with A33Y, P53Y, N54G, G55S, K58I, K98R, N99D, A100T, Y101P, R102G
VL: B1 VL with S23T, Y33A, S35N, A51Y, K54H, G77S, S91A, N97S
Kd [1]: 0.209 nM | koff [1]: 8.18e-05 s⁻¹ | kon [1]: 392000 M⁻¹ s⁻¹ | Kd [5]: 0.638 nM | koff [5]: 0.000198 s⁻¹ | kon [5]: 310000 M⁻¹ s⁻¹ | EC50 [3]: 1.95 nM

B5: #9102 항체 (antibody, mouse IgG1, V domains shown)
VH: B2 VH with S31G, S50L, G55S, S56G, G99S, A100W, S101H, L102H
VL: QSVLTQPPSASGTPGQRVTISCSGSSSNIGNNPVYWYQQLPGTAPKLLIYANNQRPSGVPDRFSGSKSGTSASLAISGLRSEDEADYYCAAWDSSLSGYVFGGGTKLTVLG
Kd [1]: 0.252 nM | koff [1]: 0.000105 s⁻¹ | kon [1]: 416000 M⁻¹ s⁻¹ | Kd [5]: 0.498 nM | koff [5]: 0.000243 s⁻¹ | kon [5]: 489000 M⁻¹ s⁻¹ | EC50 [3]: 0.0954 nM

B6: #9123 항체 (antibody, mouse IgG1, V domains shown)
VH: EVQLLESGGGLVQPGGSLRLSCAASGFTFSDYAMSWVRQAPGKGLEWVSAISYGGGNIYYADSVKGRFTISRDNSKNTLYLQMNSLRAEDTAVYYCARVGGMCTRRQCYYDYGMDVWGQGTLVTVSS
VL: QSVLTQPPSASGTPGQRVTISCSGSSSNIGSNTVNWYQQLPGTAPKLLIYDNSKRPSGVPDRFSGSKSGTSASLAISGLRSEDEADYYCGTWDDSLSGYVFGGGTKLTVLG
notes: also called #9123 mIgG1
EC50 [3]: 0.758 nM
